T1: ttSSB (Thermus thermophilus HB8, UniProt Q5SLP9 1-263)
T1 sequence: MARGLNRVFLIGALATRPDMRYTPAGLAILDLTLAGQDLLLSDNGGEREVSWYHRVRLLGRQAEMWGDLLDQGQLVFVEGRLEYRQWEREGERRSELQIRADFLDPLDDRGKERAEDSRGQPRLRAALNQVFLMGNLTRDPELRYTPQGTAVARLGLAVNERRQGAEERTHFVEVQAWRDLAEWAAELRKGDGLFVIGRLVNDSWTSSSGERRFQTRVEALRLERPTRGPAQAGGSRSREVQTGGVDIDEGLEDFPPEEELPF

T2: ttRecR (Thermus thermophilus HB8, UniProt Q5SHY0 1-194)
T2 sequence: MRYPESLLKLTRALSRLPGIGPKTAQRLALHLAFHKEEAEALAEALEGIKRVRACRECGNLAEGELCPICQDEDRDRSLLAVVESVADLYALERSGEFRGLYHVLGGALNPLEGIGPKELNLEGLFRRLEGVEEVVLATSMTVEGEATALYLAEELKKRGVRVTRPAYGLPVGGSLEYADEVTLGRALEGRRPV


Assays:
ttSSB = target: T1, ttSSB; assay: pull-down
ttRecR = target: T2, ttRecR; assay: EMSA

Binder	binding result (ttSSB)	binding result (ttRecR)
60-mer ssDNA (ssDNA) DNA: GCCAAGCTTGCATGCCTGCAGGTCGACTCTAGAGGATCCCCGGGTACCGAGCTCGAATTC	binds	–
66-mer ssDNA (ssDNA) DNA: CTTATTAAAACGGCAACTCCTCCTCCGGCGGAAAGTCTTCCAAGCCTTCGTCAATGTCCACCCCAC	–	no binding

From PMC2248737
